Measured values: patent publication US20170362317A1 (FOUNTAIN BIOPHARMA, published 2017)

T1: recombinant human CNTF (human, UniProt P26441 2-200)
T1 sequence (looked up): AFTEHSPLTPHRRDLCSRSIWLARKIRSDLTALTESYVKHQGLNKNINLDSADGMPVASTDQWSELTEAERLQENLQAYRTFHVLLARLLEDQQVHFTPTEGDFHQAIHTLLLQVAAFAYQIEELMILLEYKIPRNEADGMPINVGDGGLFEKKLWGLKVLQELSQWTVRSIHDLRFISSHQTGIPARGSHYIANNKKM

T2: recombinant human IL4 (human, UniProt P05112 25-153)
T2 sequence (looked up): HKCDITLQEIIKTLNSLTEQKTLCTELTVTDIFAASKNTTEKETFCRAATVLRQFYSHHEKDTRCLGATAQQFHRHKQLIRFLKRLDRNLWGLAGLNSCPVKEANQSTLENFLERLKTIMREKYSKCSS

T3: recombinant human IL5 (human, UniProt P05113 20-134)
T3 sequence (looked up): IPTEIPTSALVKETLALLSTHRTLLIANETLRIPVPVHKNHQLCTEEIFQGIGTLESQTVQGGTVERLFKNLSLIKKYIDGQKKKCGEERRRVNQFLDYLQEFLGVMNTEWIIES

T4: recombinant human IL11 (human, UniProt P20809 22-199)
T4 sequence (looked up): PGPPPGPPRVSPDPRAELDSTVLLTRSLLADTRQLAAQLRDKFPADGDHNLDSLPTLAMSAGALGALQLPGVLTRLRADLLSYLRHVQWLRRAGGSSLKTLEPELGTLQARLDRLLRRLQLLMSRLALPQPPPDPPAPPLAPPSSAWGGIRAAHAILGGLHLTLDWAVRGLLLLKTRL

T5: recombinant human OSM (human, UniProt P13725 26-221, limits assumed)
T5 sequence (looked up): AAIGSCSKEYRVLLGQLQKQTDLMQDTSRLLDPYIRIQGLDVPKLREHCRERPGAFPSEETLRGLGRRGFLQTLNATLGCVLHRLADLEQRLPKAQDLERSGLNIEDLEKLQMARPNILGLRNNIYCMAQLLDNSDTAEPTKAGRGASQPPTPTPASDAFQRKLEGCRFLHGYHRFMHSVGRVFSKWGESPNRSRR

T6: recombinant human IL17A (human, UniProt Q16552 20-155, limits assumed)
T6 sequence (looked up): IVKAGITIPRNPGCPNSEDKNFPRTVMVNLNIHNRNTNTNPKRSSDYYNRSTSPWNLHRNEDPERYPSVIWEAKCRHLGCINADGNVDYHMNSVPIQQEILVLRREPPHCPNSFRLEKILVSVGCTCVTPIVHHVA

T7: recombinant human IL3 (human, UniProt P08700 20-152)
T7 sequence (looked up): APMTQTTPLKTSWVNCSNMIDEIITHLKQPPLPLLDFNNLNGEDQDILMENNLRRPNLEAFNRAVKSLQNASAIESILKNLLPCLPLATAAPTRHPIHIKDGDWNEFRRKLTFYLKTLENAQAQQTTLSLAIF

B1: Ag1-4-6 (fully human anti-IL6 IgG1 antibody) (antibody, V domains shown)
VH: EVQLVESGPALVKPTQTLTLTCTFSGFSLSTGGMSVSWIRQPPGKALEWLARIDWDDDKFYTPSLKTRLTISRDTSKNQVVLIMTNMDPVDTATYYCARMHIDDSNGYYSDAFHIWGQGTMVTVSS
VL: EIVLTQSPATLSVSPGERVTLSCRDSQSVSSTSLAWYQQKSGQAPRLLIYDTSNRATGIPARFSGGGSGTDFTLTISSLEPEDFAVYYCSFVSRPYPRFTFGQGTKVEIK
notes: also called FB704
B2: HAg1T-3-10 (fully human anti-IL6 IgG1 antibody) (antibody, V domains shown)
VH: EVQLVESGPALVKPTQTLTLTCTFSGFSLSTGGMSVSWIRQPPGKALEWLARIDWDDDKFYTPSLKTRLTISRDTSKNQVVLIMTNMDPVDTATYYCARMHIDDSNGYFSDAFHIWGQGTMVTVSS
VL: EIVLTQSPATLSVSPGERVTLSCRDSQSVSSTSLAWYQQKSGQAPRLLIYDTSNRATGIPARFSGGGSGTDFTLTISSLEPEDFAVYYCSFVSRPYPRFTFGQGTKVEIK
notes: also called HAgT1-3-10
B3: 1-4-62 (fully human anti-IL6 IgG1 antibody) (antibody, V domains shown)
VH: EVQLVESGPALVKPTQTLTLTCTFSGFSLSTGGMSVSWIRQPPGKALEWLARIDWDDDKFYTPSLKTRLTISRDTSKNQVVLIMTNMDPVDTATYYCARMHIDDSNGYYSDAFHIWGQGTMVTVSS
VL: EIVLTQSPATLSVSPGERVTLSCRDSQSVSSTSLAWYQQKSGQAPRLLIYDTSNRATGIPARFSGGGSGTDFTLTISSLEPEDFAVYYCLVRNNWPPRFTFGQGTKVEIK
notes: also called parent clone

Tests used:
[1] = molecular target: T8, recombinant human interleukin-6 (IL6) (human, UniProt P05231 30-212); assay: cell-based or functional assay
[2] = molecular target: T8, recombinant human interleukin-6 (IL6); assay: ELISA, plate coated with recombinant human IL6 at 2 µg/ml, FB704 in four-fold serial dilutions from 2 µg/ml, HRP-labeled goat anti-human IgG, A450
Experimental: (§1) Plates were coated with recombinant human IL3, IL4, IL5, IL6, IL11, IL17A, CNTF, OSM, IGF-1 (R&D Systems), IL2, FGF (Prospec), VEGF, TNF-α, EGF (Peprotech) at 2 μg/ml in 0.1M NaHCO₃ buffer at 4° C. overnight. After being washed by PBS, the wells were blocked with 1% (w/v) BSA in PBS at RT for 1 h. Purified anti-IL6 antibodies in four-fold serial dilutions at a starting concentration of 2 μg/ml were placed into the wells and incubated at RT for 1 h. The plate was washed in PBS containing 0.1% (w/v) Tween 20 and then probed with HRP-labeled goat anti-human IgG (KPL) diluted 1:10,000 in 1% BSA-PBS for 40 min at RT. The plate was again washed and a TMB substrate solution was added to develop color. Stop solution (1M H₂SO₄) was then added and the absorption at 450 nm quantitated using VERSA max (Molecular Devices).
(§2) An ELISA assay as described herein was performed to confirm the binding specificity of high-affinity anti-IL6 antibodies described herein. Briefly, plates were coated with different cytokines as indicated in FIG. 3A (IL6 family cytokines) and FIG. 3B (non-IL6 family cytokines) and the binding activities of the FB704 antibody clone (i.e. Ag1-4-6) to those cytokines were examined.

[3] = molecular target: T8, recombinant human interleukin-6 (IL6); assay: SPR (BIAcore T200), IgG captured by anti-human IgG, IL6 injected at 0.4-25.6 nM
Experimental: IgG binding affinity was measured by using human antibody capture kit (GE healthcare) in BIAcore T200 system (GE healthcare). The mouse anti-human IgG was immobilized on a CMS sensor chip via amine coupling. Approximately 700 RU of purified anti-IL6 IgG in HBS-EP+ buffer were captured onto the immobilized surface. The recombinant human IL6 (R&D Systems) at concentrations ranging from 25.6 nM to 0.4 nM in HBS-EP+ buffer was injected for 2 minutes using a flow rate of 30 μl/min. Dissociation of bound antigen in HBS⁻EP⁺ buffer flow was followed for 7 minutes. The surfaces IgG were regenerated after each cycle using regeneration solution (3M MgCl₂). The dissociation constant (KD) was calculated as kd/ka.

recombinant human TNF-α = recombinant human TNF-α (human, UniProt P01375 77-233); assay: ELISA, plate coated with the cytokine at 2 µg/ml, FB704 in four-fold serial dilutions, HRP-labeled goat anti-human IgG, A450 [Cont'd) B]
recombinant human TNF-α, sequence (P01375 77-233 limits assumed): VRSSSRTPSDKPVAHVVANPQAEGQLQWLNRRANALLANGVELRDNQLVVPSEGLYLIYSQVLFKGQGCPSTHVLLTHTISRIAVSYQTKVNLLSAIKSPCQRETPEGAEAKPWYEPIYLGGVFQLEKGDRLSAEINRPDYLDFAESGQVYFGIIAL
Experimental: as §1, §2

recombinant human IGF-1 = recombinant human IGF-1 (human, UniProt P05019 49-118); assay: as above
recombinant human IGF-1, sequence (P05019 49-118 limits assumed): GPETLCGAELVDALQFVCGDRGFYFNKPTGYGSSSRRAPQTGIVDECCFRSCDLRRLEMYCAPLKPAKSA
Experimental: as §1, §2

recombinant human EGF = recombinant human EGF (human, UniProt P01133 971-1023); assay: as above
recombinant human EGF, sequence (P01133 971-1023 limits assumed): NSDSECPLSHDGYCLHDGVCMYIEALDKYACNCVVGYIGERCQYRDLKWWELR
Experimental: as §1, §2

recombinant human VEGF = recombinant human VEGF (human, UniProt P15692-4 27-191, limits assumed); assay: as above
recombinant human VEGF, sequence (P15692 other isoform, or with tags, fused parts or gaps limits assumed): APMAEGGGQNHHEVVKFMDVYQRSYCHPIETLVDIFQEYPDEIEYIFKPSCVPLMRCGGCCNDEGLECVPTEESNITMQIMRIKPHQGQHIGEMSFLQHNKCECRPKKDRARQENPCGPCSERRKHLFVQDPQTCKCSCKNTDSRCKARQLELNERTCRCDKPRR
Experimental: as §1, §2

[4] = molecular target: T8, recombinant human interleukin-6 (IL6); assay: ELISA, plate coated with recombinant human IL6 at 2 µg/ml, FB704 in four-fold serial dilutions from 2 µg/ml, HRP-labeled goat anti-human IgG, A450 [Cont'd) B]
Experimental: as §1, §2

recombinant human CNTF = molecular target: T1, recombinant human CNTF; assay: ELISA, plate coated with the cytokine at 2 µg/ml, FB704 in four-fold serial dilutions, HRP-labeled goat anti-human IgG, A450
Experimental: as §1, §2

recombinant human IL2 = recombinant human IL2 (human, UniProt P60568 21-153); assay: as above
recombinant human IL2, sequence (P60568 21-153 limits assumed): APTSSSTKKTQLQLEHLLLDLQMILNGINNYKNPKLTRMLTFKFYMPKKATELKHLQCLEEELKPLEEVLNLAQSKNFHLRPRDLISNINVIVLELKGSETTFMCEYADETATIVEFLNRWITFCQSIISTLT
Experimental: as §1, §2

recombinant human IL4 = molecular target: T2, recombinant human IL4; assay: as above
Experimental: as §1, §2

recombinant human IL5 = molecular target: T3, recombinant human IL5; assay: as above
Experimental: as §1, §2

recombinant human IL11 = molecular target: T4, recombinant human IL11; assay: as above
Experimental: as §1, §2

recombinant human OSM = molecular target: T5, recombinant human OSM; assay: as above
Experimental: as §1, §2

recombinant human IL17A = molecular target: T6, recombinant human IL17A; assay: as above
Experimental: as §1, §2

recombinant human IL3 = molecular target: T7, recombinant human IL3; assay: as above
Experimental: as §1, §2

[5] = molecular target: T8, recombinant human interleukin-6 (IL6); assay: cell-based or functional assay; remark: listed apart in the source

Row | Binder | inhibition percentage of control of STAT3 phosphorylation in U266 cells, antibody at 0.05 µg/ml [1] [%] | inhibition percentage of control of STAT3 phosphorylation in U266 cells, antibody at 0.5 µg/ml [1] [%] | EC50 (read off the curve) [2] [µg/mL] | Kd [3] [pM] | koff [3] [s⁻¹] | kon [3] [M⁻¹ s⁻¹] | binding result (recombinant human TNF-α) | binding result (recombinant human IGF-1) | binding result (recombinant human EGF) | binding result (recombinant human VEGF) | EC50 (read off the curve) [4] [µg/mL] | binding result (recombinant human CNTF) | binding result (recombinant human IL2) | binding result (recombinant human IL4) | binding result (recombinant human IL5) | binding result (recombinant human IL11) | binding result (recombinant human OSM) | binding result (recombinant human IL17A) | binding result (recombinant human IL3) | IC50 of inhibition of IL6-dependent B9 cell proliferation (WST-1, 72 h) [5] [µg/mL]
1 | B1 | 0 | 60 | ~0.01 | 750 | 0.00121 | 1.61e+06 | no binding (tested: 2 µg/ml) | no binding (tested: 2 µg/ml) | no binding (tested: 2 µg/ml) | no binding (tested: 2 µg/ml) | ~0.01 | no binding (tested: 2 µg/ml) | no binding (tested: 2 µg/ml) | no binding (tested: 2 µg/ml) | no binding (tested: 2 µg/ml) | no binding (tested: 2 µg/ml) | no binding (tested: 2 µg/ml) | no binding (tested: 2 µg/ml) | no binding (tested: 2 µg/ml) | 0.0468
2 | B2 | 49 | 93 |  | 270 | 0.0006 | 2.24e+06 |  |  |  |  |  |  |  |  |  |  |  |  |  | 0.00456
3 | B3 | 0 | 8 |  | 3850 | 0.00166 | 438000 |  |  |  |  |  |  |  |  |  |  |  |  |  | 0.618
